Laboratory results from the supplement of paper PMC12667976.
± gives the standard error.

B1: library; numbered along this chain (parent)
chain: MATDAALRRLLRLHRTEIAVAVDSAFPLLHALADHDVVPEDKFQETLHLKEKEGCPQAFHALLSWLLTQDSTAILDFWRVLFKDYNLERYGRLQPILDSFPKDVDLSQPRKGRKPPAVPKALVPPPRLPTKRKASEEARAAAPAALTPRGTASPGSQLKAKPPKKPESSAEQQRLPLGNGIQTMSASVQRAVAMSSGDVPGARGAVEGILIQQVFESGGSKKCIQVGGEFYTPSKFEDSGSGKNKARSSSGPKPLVRAKGAQGAAPGGGEARLGQQGSVPAPLALPSDPQLHQKNEDECAVCRDGGELICCDGCPRAFHLACLSPPLREIPSGTWRCSSCLQATVQEVQPRAEEPRPQEPPVETPLPPGLRSAGEEVRGPPGEPLAGMDTTLVYKHLPAPPSAAPLPGLDSSALHPLLCVGPEGQQNLAPGARCGVCGDGTDVLRCTHCAAAFHWRCHFPAGTSRPGTGLRCRSCSGDVTPAPVEGVLAPSPARLAPGPAKDDTASHEPALHRDDLESLLSEHTFDGILQWAIQSMARPAAPFPS

Variants of: B1
Experiment: AIRE transcriptional activation functional score (insulin promoter-GFP; nonsense median 0, synonymous median 1) (normalised score); higher = higher AIRE activity (more reporter activation)
Details: with insulin promoter-GFP reporter in HEK293
Procedure: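 Deep mutational scan of full-length human AIRE (codon-optimized cDNA, DT-POPCode NNN libraries over three regions) integrated at a Bxb1 landing pad in HEK293 cells carrying an insulin core promoter-GFP reporter at a Flp-In site. Cells were sorted for the top 10% GFP about 14 days after transfection. Variant frequency log-ratios (select vs non-select, TileSeq) were rescaled so that the nonsense median is 0 and the synonymous median is 1, then averaged over biological replicates.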

| Variant | AIRE transcriptional activation functional score |
| --- | --- |
| S156V | 1.13 ± 0.6 |
| S156Y | 0.901 ± 0.32 |
| S156A | 0.976 ± 0.7 |
| S156Q | 0.543 ± 0.33 |
| S156E | 0.377 ± 0.46 |
| S156C | 1.38 ± 0.2 |
| S156N | 1.39 ± 0.5 |
| S156I | 1.37 ± 0.37 |
| S156H | 0.981 ± 0.23 |
| S156W | 1.64 ± 0.071 |
| S156D | 0.928 ± 0.48 |
| S156G | 0.917 ± 0.37 |
| S156M | 0.855 ± 0.078 |
| S156L | 1.55 ± 0.51 |
| S156P | 0.405 ± 0.26 |
| S156T | 1.75 ± 0.85 |
| S156F | 1.53 ± 0.14 |
| S156R | 0.968 ± 0.47 |
| S156K | 0.349 ± 0.15 |
| G150Y | 2.21 ± 0.57 |
| G150P | 0.879 ± 0.17 |
| G150S | 1.63 ± 0.56 |
| G150R | 0.148 ± 0.46 |
| G150W | 2.25 ± 0.039 |

| Variant | AIRE transcriptional activation functional score |
| --- | --- |
| G150T | 0.661 ± 0.51 |
| G150V | 0.822 ± 0.59 |
| G150N | 0.149 ± 0.088 |
| G155E | 0.777 ± 0.83 |
| G155S | 0.589 ± 0.56 |
| G155C | 0.555 ± 0.12 |
| G155R | 1.01 ± 0.47 |
| G155M | 2.34 ± 0.066 |
| G155W | 1.83 ± 0.1 |
| G155Q | -0.156 ± 0.43 |
| G155Y | 1.19 ± 0.37 |
| G155K | 0.662 ± 0.7 |
| G155T | 0.66 ± 0.12 |
| G155N | 0.154 ± 0.25 |
| G155F | 1.61 ± 0.35 |
| G155D | 0.338 ± 0.16 |
| G155H | 1.71 ± 0.16 |
| G155V | 0.534 ± 0.28 |
| G155A | 1.44 ± 0.52 |
| G155I | 0.209 ± 0.65 |
| G155L | 0.509 ± 0.4 |
| G155P | -0.203 ± 0.099 |
| Q157T | 0.825 ± 0.5 |
| Q157P | 1.1 ± 0.25 |

| Variant | AIRE transcriptional activation functional score |
| --- | --- |
| Q157S | 1.05 ± 0.49 |
| Q157G | 1.08 ± 0.46 |
| Q157W | 0.173 ± 0.069 |
| Q157L | 1.26 ± 0.39 |
| Q157C | 1.27 ± 0.41 |
| Q157Y | 1.31 ± 0.54 |
| Q157K | 0.787 ± 0.22 |
| Q157A | 1.13 ± 0.74 |
| Q157V | 0.829 ± 0.34 |
| Q157F | 1.5 ± 0.2 |
| Q157I | 0.859 ± 0.43 |
| Q157N | 0.858 ± 0.49 |
| Q157M | 0.398 ± 0.14 |
| Q157E | 1.26 ± 0.53 |
| Q157H | 1.34 ± 0.23 |
| Q157R | 0.62 ± 0.58 |
| Q157D | 0.498 ± 0.44 |
| K159C | 1.14 ± 0.28 |
| K159D | 0.68 ± 0.32 |
| K159E | 0.955 ± 0.22 |
| K159A | 0.394 ± 0.53 |
| K159F | 1.44 ± 0.11 |
| K159H | 1.18 ± 0.71 |
| K159G | 0.883 ± 0.64 |

| Variant | AIRE transcriptional activation functional score |
| --- | --- |
| S153F | 1.67 ± 0.13 |
| S153K | 0.285 ± 0.37 |
| S153P | 1.7 ± 0.17 |
| S153N | 0.697 ± 0.74 |
| S153M | 1.09 ± 0.36 |
| S153Q | 0.582 ± 0.29 |
| S153H | 1.41 ± 0.56 |
| S153A | 0.85 ± 0.41 |
| S153G | 1.21 ± 0.36 |
| S153D | 0.728 ± 0.95 |
| S153C | 1.2 ± 0.24 |
| S153Y | 0.691 ± 0.65 |
| S153W | 1.4 ± 0.025 |
| S153T | 0.818 ± 0.56 |
| S153R | 0.588 ± 0.29 |
| S153I | 1.03 ± 0.44 |
| S153E | 1.14 ± 0.16 |
| S153V | 0.888 ± 0.29 |
| S153L | 1.16 ± 0.42 |
| A152W | 1.68 ± 0.4 |
| A152H | 0.789 ± 0.29 |
| A152F | 1.55 ± 0.15 |
| A152Q | 0.894 ± 0.41 |
| A152R | 0.913 ± 0.49 |

| Variant | AIRE transcriptional activation functional score |
| --- | --- |
| A152M | 1.86 ± 0.072 |
| A152G | 0.815 ± 0.37 |
| A152Y | 1.21 ± 0.48 |
| A152P | 0.594 ± 1 |
| A152N | 0.485 ± 0.32 |
| A152E | -0.141 ± 0.22 |
| A152K | 0.993 ± 0.36 |
| A152D | 0.696 ± 0.32 |
| A152V | 1.17 ± 0.27 |
| A152C | 0.402 ± 0.25 |
| A152T | 1.32 ± 0.64 |
| A152I | 0.777 ± 0.33 |
| A152S | 0.715 ± 0.46 |
| A152L | 1.19 ± 0.46 |
| T151Y | 1.44 ± 0.23 |
| T151P | 1.01 ± 0.39 |
| T151W | 1.97 ± 0.091 |
| T151Q | 1.28 ± 0.67 |
| T151R | 0.807 ± 0.43 |
| T151A | 1.37 ± 0.58 |
| T151E | 1.13 ± 0.21 |
| T151L | 0.905 ± 0.44 |
| T151V | 1.5 ± 0.29 |
| T151H | 1.34 ± 0.22 |

| Variant | AIRE transcriptional activation functional score |
| --- | --- |
| T151F | 1.76 ± 0.23 |
| T151C | 0.915 ± 0.17 |
| T151I | 1.3 ± 0.26 |
| T151K | 0.845 ± 0.2 |
| T151N | 0.966 ± 0.16 |
| T151D | 1.27 ± 0.33 |
| T151G | 1.36 ± 0.36 |
| T151M | 0.378 ± 0.04 |
| T151S | 1.01 ± 0.31 |
| L158K | 0.11 ± 0.86 |
| L158C | 0.528 ± 0.29 |
| L158S | 0.724 ± 0.48 |
| L158M | 0.957 ± 0.086 |
| L158N | 1.19 ± 0.29 |
| L158D | 0.772 ± 0.62 |
| L158W | 1.22 ± 0.042 |
| L158V | 0.815 ± 0.39 |
| L158R | 0.202 ± 0.6 |
| L158P | 0.723 ± 0.55 |
| L158G | 1.33 ± 0.7 |
| L158T | 0.209 ± 0.54 |
| L158E | 0.986 ± 0.54 |
| L158Q | 0.833 ± 0.56 |
| L158F | 1.27 ± 0.11 |

| Variant | AIRE transcriptional activation functional score |
| --- | --- |
| L158H | 0.949 ± 0.3 |
| L158I | 0.959 ± 0.38 |
| L158A | 0.834 ± 0.42 |
| L158Y | 1.07 ± 0.39 |
| P154Y | 1.68 ± 0.36 |
| P154T | 1.35 ± 0.7 |
| P154V | 0.461 ± 0.49 |
| P154N | 0.642 ± 0.3 |
| P154I | 1.59 ± 0.16 |
| P154Q | -0.0735 ± 0.26 |
| P154G | 0.75 ± 0.43 |
| P154S | 0.685 ± 0.35 |
| P154M | -0.062 ± 0.16 |
| P154W | 1.13 ± 0.17 |
| P154E | 0.475 ± 0.28 |
| P154R | 0.579 ± 0.53 |
| P154K | -1.06 ± 0.26 |
| P154L | 1.36 ± 0.46 |
| P154D | 0.0296 ± 0.054 |
| P154C | 0.692 ± 0.45 |
| P154H | 0.26 ± 0.51 |
| P154F | 1.89 ± 0.11 |
| P154A | 0.676 ± 0.42 |
